Assay results: publication PMC3795256, “Dynamic Regulation of Ero1α and Peroxiredoxin 4 Localization in the Secretory Pathway*^([image sbox.jpg])” (The Journal of Biological Chemistry, 2013)

B1: recombinant human Ero1α (WT) (natural protein, UniProt Q96HE7 24-468, looked up)
chain: EEQPPETAAQRCFCQVSGYLDDCTCDVETIDRFNNYRLFPRLQKLLESDYFRYYKVNLKRPCPFWNDISQCGRRDCAVKPCQSDEVPDGIKSASYKYSEEANNLIEECEQAERLGAVDESLSEETQKAVLQWTKHDDSSDNFCEADDIQSPEAEYVDLLLNPERYTGYKGPDAWKIWNVIYEENCFKPQTIKRPLNPLASGQGTSEENTFYSWLEGLCVEKRAFYRLISGLHASINVHLSARYLLQETWLEKKWGHNITEFQQRFDGILTEGEGPRRLKNLYFLYLIELRALSKVLPFFERPDFQLFTGNKIQDEENKMLLLEILHEIKSFPLHFDENSFFAGDKKEAHKLKEDFRLHFRNISRIMDCVGCFKCRLWGKLQTQGLGTALKILFSEKLIANMPESGPSYEFHLTRQEIVSLFNAFGRISTSVKELENFRNLLQNIH
notes: human Ero1α, wild type, recombinant; also called purified human Ero1α; source: recombinant, purified
B2: recombinant human ERp44 (natural protein, UniProt Q9BS26 30-406, looked up)
chain: EITSLDTENIDEILNNADVALVNFYADWCRFSQMLHPIFEEASDVIKEEFPNENQVVFARVDCDQHSDIAQRYRISKYPTLKLFRNGMMMKREYRGQRSVKALADYIRQQKSDPIQEIRDLAEITTLDRSKRNIIGYFEQKDSDNYRVFERVANILHDDCAFLSAFGDVSKPERYSGDNIIYKPPGHSAPDMVYLGAMTNFDVTYNWIQDKCVPLVREITFENGEELTEEGLPFLILFHMKEDTESLEIFQNEVARQLISEKGTINFLHADCDKFRHPLLHIQKTPADCPVIAIDSFRHMYVFGDFKDVLIPGKLKQFVFDLHSGKLHREFHHGPDPTDTAPGEQAQDVASSPPESSFQKLAPSEYRYTLLRDRDEL
notes: human ERp44, recombinant; a construct made in E. coli probably lacks the signal peptide; source: E. coli BL21 (DE3), purified (HisTrap, Superdex 200, Resource Q)

Experiments:
Settings in all cases: both partners purified
[1] = target: T1, recombinant human PDI (human, UniProt P07237 18-508); assay: SPR; ProteOn XPR36; Ero1α (WT) or Prx4 amine-coupled to a GLC chip, PDI or ERp44 as analyte (0.444–36 μM); 25 °C; 20 mM HEPES-NaOH pH 7.4, 150 mM NaCl, 0.001% Tween, 2 mM EDTA; two-state model
T1 construct: human PDI, recombinant; also called protein disulfide isomerase; source: recombinant, purified
T1 sequence (P07237 18-508): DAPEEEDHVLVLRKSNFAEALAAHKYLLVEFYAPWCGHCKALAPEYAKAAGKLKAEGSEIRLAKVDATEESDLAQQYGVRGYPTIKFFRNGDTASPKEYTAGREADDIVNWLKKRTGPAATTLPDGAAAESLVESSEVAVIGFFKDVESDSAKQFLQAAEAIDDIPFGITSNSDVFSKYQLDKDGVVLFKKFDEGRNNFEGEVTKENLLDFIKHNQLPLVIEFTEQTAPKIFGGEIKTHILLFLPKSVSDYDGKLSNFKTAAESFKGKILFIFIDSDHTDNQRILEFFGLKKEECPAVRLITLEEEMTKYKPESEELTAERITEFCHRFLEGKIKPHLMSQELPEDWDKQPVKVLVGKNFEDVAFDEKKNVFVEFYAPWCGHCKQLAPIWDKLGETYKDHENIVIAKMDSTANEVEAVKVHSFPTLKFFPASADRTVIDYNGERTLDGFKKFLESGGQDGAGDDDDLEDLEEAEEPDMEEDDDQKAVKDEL

[2] = target: B1; assay: SPR; ProteOn XPR36; Ero1α (WT) or Prx4 amine-coupled to a GLC chip, ERp44 as analyte (0.444–36 μM); 25 °C; 20 mM HEPES-NaOH pH 6.4, 150 mM NaCl, 0.001% Tween, 2 mM EDTA; two-state model
[3] = target: B1; assay: SPR; ProteOn XPR36; Ero1α (WT) or Prx4 amine-coupled to a GLC chip, PDI or ERp44 as analyte (0.444–36 μM); 25 °C; 20 mM HEPES-NaOH pH 7.4, 150 mM NaCl, 0.001% Tween, 2 mM EDTA; two-state model
[4] = target: B2; assay: SPR; ProteOn XPR36; Ero1α (WT) or Prx4 amine-coupled to a GLC chip, ERp44 as analyte (0.444–36 μM); 25 °C; 20 mM HEPES-NaOH pH 6.4, 150 mM NaCl, 0.001% Tween, 2 mM EDTA; two-state model
[5] = target: B2; assay: SPR; ProteOn XPR36; Ero1α (WT) or Prx4 amine-coupled to a GLC chip, PDI or ERp44 as analyte (0.444–36 μM); 25 °C; 20 mM HEPES-NaOH pH 7.4, 150 mM NaCl, 0.001% Tween, 2 mM EDTA; two-state model

B1
Kd [1]: 1.94 µM

B2
Kd [2]: 5.15 µM | Kd [3]: 10.4 µM

B3: recombinant human Prx4 (natural protein, UniProt Q13162 38-271, looked up)
chain: WETEERPRTREEECHFYAGGQVYPGEASRVSVADHSLHLSKAKISKPAPYWEGTAVIDGEFKELKLTDYRGKYLVFFFYPLDFTFVCPTEIIAFGDRLEEFRSINTEVVACSVDSQFTHLAWINTPRRQGGLGPIRIPLLSDLTHQISKDYGVYLEDSGHTLRGLFIIDDKGILRQITLNDLPVGRSVDETLRLVQAFQYTDKHGEVCPAGWKPGSETIIPDPAGKLKYFDKLN
notes: human Prx4, recombinant; a construct made in E. coli probably lacks the signal peptide; also called purified human Prx4; peroxiredoxin 4; source: E. coli BL21 (DE3), purified (HisTrap, Superdex 200, Resource Q)
Kd [4]: 6.92 µM | Kd [5]: 17.9 µM
